Measured values reported in the nanobody polyreactivity screen of Harvey et al. (2022).

Test: yeast display, Sf9 membrane polyspecificity reagent, FACS + sequencing; frameworks hold sequencing errors
Method in brief: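 Nanobodies came from a synthetic yeast display library in Saccharomyces cerevisiae BJ5465, induced with galactose for 36–48 hours and stained for 1 hour at 4 °C with 10% biotinylated, detergent-solubilized Sf9 membrane reagent. Cells were enriched on streptavidin microbeads and then FACS-sorted, with low and high (top ~1%) gates set on anti-HA fluorescence for expression and streptavidin fluorescence for reagent binding. Each polyreactivity label reflects the gate a clone came from. Genes were amplified by colony PCR, sequenced by MiSeq 2 × 250 and filtered by CDR length.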

Sequence	polyreactivity (PSR sort gate)
QVQLVESGGGLVQAGGSLRLSCAASGSTFRGYAMGWYRQAPGKERELVAAITGSGDRTRYADSVKGRFTISRDNAKNTVYLQMNSLKPEDTAVYYCAKVWPHWAYYSWGQGTQVTVSS	high polyreactivity
QVQLVESGGGLVQAGGSLRLSCAASGSIFTLYAMGWNRQAPGQERELVAAITRSGGSTYYADSVKGRFTSSRDNAKNTVYLQMNSLKPEDTAVYYCAADKAPYSTEGDYWGQGTQVTVSS	high polyreactivity
PVQLVESGGGLGQAGGSLSLRCAASGSIFTYYAMVWYRQAPGKERELVADISNSGSTYYADSVNGRFTISRDNAKNTVYLQMNRLKPEDSAVSSCNAEYHDLYDYWGQGTQVTVSS	low polyreactivity
QVQLVESGGGLVQAGGSLRLSCAASGRIFPRYVMGWYRQAPGKERELVAAITYRGGSTSYADSVKGRFTISRDNAKNTVYLQMNSLKPEDTAVYYCNAKSLYYNYAYDYWGQGTQVTVSS	high polyreactivity
QVHLVETGGALVQAGGSLRISCAASGLTFLDYAMGWYRQSTGKERELGAAITSGGSTNYADSVKGRFTISGDNATTTVYFQMISLKPEDTAVYYCATDLEVSAYDYWGQGNQVTVSS	low polyreactivity
QVQLVESGGGLVQAGGSLRLSCAASGRTFYGYAMGWYRQAPGKERELVAGITFRGSSTYYADSVKGRFTISRDNAKNTVYLQMNSLKPEDTAVYYCNVPYGNSHVGYDYWGQGTQVTVSS	high polyreactivity
QDQLVESGGWLVQAGGTLRLSCAASGRILWFYAMGWYRQAPGKERELVASISGSGGSTFYADSVKGRFTISRDNAKNTVYLQMNRLKPEDTAVYYCAAYKEPYYEEYGYWGQGTQVTVSS	low polyreactivity
QVQLVESGGGLVQAGGSLRLSCAASGFTFTENVMGWYRQAPGKEREFVAAITYIGGRTYYADSVKGRFTISRDNAKNTVYLQMNSLKPEDTAVYYCAADWAYYVASYLYYTFAYWGQGTQVTVSS	low polyreactivity
QVQLVESGGGLVQAGGSLRLSCAASGFTFYQYAMGWYRQAPGKERELVAAITWNGGSTFYADSVKGRFTISRDNAKNTVYLQMNSLKPEDTAVYYCAARQYFSSYYEYDYWGQGTQVTVSS	high polyreactivity
QVQLVESGGGLVQAGGSLRLSCAASGFTFAVYTMGWYRQAPGKERELVAAITASGGSMHYADSVKGRFTISRDNVKNTVYLQMNSLKPEDTAVYYCAARPRLYQYYYWGQGTQVTVSS	high polyreactivity
QVQLVESGGGLVQAGGSLRLSCAASGRTFSPYALGWSRKAPGKERELVAAITSRGSNTFYADSVKGRFTISRDNAKNTVYLQMNSLKPEDTAVYYCNKYTIVSRYDYWGQGTQVTVSS	high polyreactivity
QVQLLESGGGLVQAGGSLRLTSPASVRISQIYAMGWYIQAPGTERVLVARITSTDSTYYADSVKGRFTISRDNAKNTVYLQMNSLKPEDTAVYYCAASWWSPYDYWGQGTQVTVSS	low polyreactivity
QVQLVESGGGLVQAGGSLRLSCAASGRTFYKYALGWYRQAPGKERELVAAITSGGSTNYADSVKGRFTISRDNAKYTVYLQMNSLKPEDTAVYYCNASFEENFPFGDYDYWGQGTQVTGSS	high polyreactivity
QVLLQESGGGLVQAGGSLRLCCAASGYISGDQYMGWYRQAPGKEREFVAGIGNGTNTNYADSVKGRFTTSRDNAKNTVYLQMNSLKPEDTAVYYCAADPSDGSTLAYWGQGTQVTVSS	high polyreactivity
QVQLVESGGGLVQAGGSLRLSCAASGSIFYRYAMGWYRQAPGKERELVAGITRGGSTNYADSVKGRFTISRDNAKNTVYLQMNSLKPEDTAVYYCAARSYVYVHYYYWGQGTQVTVSS	high polyreactivity
QVQLQESGGGQVQAGGSLRLSSAASGYIFAYNYMGWYRKAPGKERELVAAIVHGSTTNYADSVKGRFTISRDNAKNTVYLHMNNLKPEDTAVYYCAVDAERYYLHSYWGQGTQVTVSS	high polyreactivity

Sequence	polyreactivity (PSR sort gate)
QVQLVESGGGLVQAGGSLRLSCAASGSIYSRNAMGWYRQAPGKERELVAGISTGGSTNYADSVKGRFTISRDNAKNTVYLQMNSLKPEDTAVYYCAAPLAYEGDYWGQGSQVTVSS	low polyreactivity
QVQLVESGGGLVQAGGSLRLSCAASGFIFAVNAMGWYRPAPGKERELVAAISRSGGTTYYADSVKGRFTISRDNAKNTVYLQMNSLKPEDTAVYYCARSSGLRSWRSSDYWGQGTQVTVSS	high polyreactivity
QVQLVESGGGLVQAGGSLRLSCAASGSIFVLYAMGWSRQAPGKERELVAAITTGGGTNYADSVKGRFTISRDNAKNTVYLQMNSLKPEDTAVYYCAAADSTWFDWGNYWYYYWGQGTQVTVSS	low polyreactivity
QVQLVESGGGLVQAGGSLRLSCAASGFIFLSYAKGWYRQAPGKERELVATITWSGGRTYYADSVKGRFTISRDNAKNTVYLQMNSLKPEDTAVYYCAKVNTYYNIYVTFDYWGQGTQVTVSS	low polyreactivity
QVQLVESGGGLVQAGGSLRLSCAASGYTFWQYAKGWYRQAPGKERELVVTITSRGGSTYYADSVKGRFTISRDNAKNTVYLHMNSLKPEDTAVYYCNARRRYSTRRSDYWGQGTQVTVSS	high polyreactivity
QVQLVESGGGLVQAGGSLRLSCAASGRIFRFYAMGWYRQAPGKERELVAAITRNVGSTFYADSVKGRFTISRDNAKNTVYLQMNSLKPEDTAVYYCAAESDYYYRYTFDYWGQGTLVTVSS	low polyreactivity
QVQLVESGGGLVQAGGSLRLSCAASGSTFRYYAMGWYRQAPGKERELVAAISRSGGRTYYADSVKGRFTISRDNAKNTAYLQMNRLKPEDTAVYYCAVVVWWFTGCLGPYDYWGKGTQVTVSS	high polyreactivity
QVHLVESGGGLVQAGGSLRLSCAASGRTFETYAMGWYRQSPGKERELVAAITTSGGTTYYADSVKGRFTISRDNAKNTVYLQMKSLKPEDTAVYYCAADPWIEDTYGSKAYYYWGQGTQVTVSS	low polyreactivity
QVQLEESGGGFVQAAGTLRLSCAPSGRIFLPYAMGWYRQAPGKEREFVAAITWGAGTTYYADSVKGRFTISRDNAKNTVYLQMNSLKPDDTAVYYCNARRRRAFSLYYYWGQGTQVTVSS	high polyreactivity
QVQLVDSGGGLVQAGGSLRLICAASGRNLYAYSMGWYRQAPWQQRELVGAITSGASTYYADSVKGRFTISRDNAKTNVYLQMKRLKPEDTAVYYCAKSVRYYKPGYDYWGQGTQVTVSS	low polyreactivity
QVQLVESGGGLVQAGGSLSLSCAASGLTFYNYAMGWYRQAPGTERELVAAISRSGRTYYADSVKGRFTISRDNAKNTVDLQMNSLKPEDTAVYYCAAGHGGDPGSGYWGQGTEVTVSS	high polyreactivity
QVQLVESAGGLVQAGGCLRLSCAACGSIFLYNAMGWYRQAPVKERELVAGITGGGGTNYADSVKGRFTISRDNAKNTVYLQMNSLKPEDTAVYYCAADPSGQFPYSYYNYDYDYWGQGTQVTVSS	low polyreactivity
QVQLVESGRGLVQAGGSLRLSCAASGLTFVYYDMGWYRQAPGKERELVAAITYIGTSTYYADSVKGRFTISRDNAKNTVYLQMNSLKPEDTAVYYCAAPFPIRSGESWRTDLGYDYWGQGTQVTVSS	low polyreactivity
QVQLVESGGGLVQAGGSLRLSCAASGRIFAHYAMGWYRQAPGKEREMVAAISRRGGSTYYAESVKGRFTISRDNAKNTVYLQMNRLKPEDTAVYYCNAVTRSSLSWFFGYDYWGQGTQVTVSS	high polyreactivity
QVQLVESGGGLVQAGGSLRLSCAASGNTFYSNAMGWYRQAPGKERDLVAAISASGTTTYYADSVKGRFTISRDNAKNTVYLQMNSLKPEDTAVYYCAAVAPTRATRREDSWGQGTQVTVSS	high polyreactivity
QVQLVESGGGLVQAGGSLRLSCAASGFICTGYTMGWYRQAPGKERELVARISSGDSTKYADSVKGRFTISRDNAKNTVYLQMNSLKPEDTAVYYCNVRDRRSIRSRSDYWGQGTQVTVSS	high polyreactivity
